Source: patent publication US20140175018A1
Where two headings read alike, the source gives them in different places. Each block holds one substance with its values, some of them ahead of it.

How the values were obtained:
[1] = molecular target: T1, chemokine (C-X-C motif) receptor 1 (CXCR1) (human) (UniProt P25024); test: cell-based or functional assay
T1 sequence (looked up): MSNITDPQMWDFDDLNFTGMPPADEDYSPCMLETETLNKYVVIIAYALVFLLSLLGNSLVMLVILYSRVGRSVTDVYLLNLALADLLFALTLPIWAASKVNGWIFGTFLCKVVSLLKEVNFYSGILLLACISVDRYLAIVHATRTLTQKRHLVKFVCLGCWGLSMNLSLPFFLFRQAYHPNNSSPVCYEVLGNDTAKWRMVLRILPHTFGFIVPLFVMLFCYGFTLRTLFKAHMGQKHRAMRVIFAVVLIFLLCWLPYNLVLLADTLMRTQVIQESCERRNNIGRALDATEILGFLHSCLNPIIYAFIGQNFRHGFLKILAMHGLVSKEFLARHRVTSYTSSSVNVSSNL

[2] = molecular target: chemokine (C-X-C motif) receptor 3 (CXCR3) (human) (UniProt P49682); test: cell-based or functional assay
[3] = molecular target: chemokine (C-C motif) receptor 3 (CCR3) (human) (UniProt P51677); test: blood passed through chemokine-coupled column; flow cytometry before and after
[4] = molecular target: chemokine (C-C motif) receptor 3 (CCR3) (human) (UniProt P51677); test: blood passed through magnetic column with RANTES-coupled MACS beads; flow cytometry before and after
[5] = molecular target: chemokine (C-X-C motif) receptor 4 (CXCR4) (human) (UniProt P61073); test: cell-based or functional assay
[6] = molecular target: T2, chemokine (C-C motif) receptor 4 (CCR4) (human) (UniProt P51679); test: cell-based or functional assay
T2 sequence (looked up): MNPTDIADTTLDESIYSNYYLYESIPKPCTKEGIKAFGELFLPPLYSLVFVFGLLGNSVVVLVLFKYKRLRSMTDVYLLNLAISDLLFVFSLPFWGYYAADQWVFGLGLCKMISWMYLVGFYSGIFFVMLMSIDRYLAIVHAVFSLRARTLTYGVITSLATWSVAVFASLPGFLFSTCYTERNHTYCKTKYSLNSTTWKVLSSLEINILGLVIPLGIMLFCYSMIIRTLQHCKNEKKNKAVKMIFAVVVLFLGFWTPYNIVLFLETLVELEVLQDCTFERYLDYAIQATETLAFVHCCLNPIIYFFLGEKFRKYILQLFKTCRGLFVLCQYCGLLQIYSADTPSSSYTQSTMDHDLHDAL

[7] = molecular target: T1, chemokine (C-X-C motif) receptor 1 (CXCR1) (human); test: cell-based or functional assay; remark: listed apart in the source
[8] = molecular target: T3, chemokine (C-C motif) receptor 6 (CCR6) (human) (UniProt P51684); test: cell-based or functional assay
T3 sequence (looked up): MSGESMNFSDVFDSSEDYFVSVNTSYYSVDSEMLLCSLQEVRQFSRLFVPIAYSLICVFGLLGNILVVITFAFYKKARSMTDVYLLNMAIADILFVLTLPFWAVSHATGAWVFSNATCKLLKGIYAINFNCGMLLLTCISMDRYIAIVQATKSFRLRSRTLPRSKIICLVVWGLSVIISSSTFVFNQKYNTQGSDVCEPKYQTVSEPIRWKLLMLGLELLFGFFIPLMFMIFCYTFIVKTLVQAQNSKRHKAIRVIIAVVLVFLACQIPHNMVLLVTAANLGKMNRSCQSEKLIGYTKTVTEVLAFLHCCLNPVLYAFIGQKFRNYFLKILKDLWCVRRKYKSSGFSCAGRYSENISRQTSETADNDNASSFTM

[9] = molecular target: chemokine (C-C motif) receptor 7 (CCR7) (human) (UniProt P32248); test: cell-based or functional assay
[10] = molecular target: chemokine (C-C motif) receptor 9 (CCR9) (human) (UniProt P51686); test: cell-based or functional assay
[11] = molecular target: chemokine (C-C motif) receptor 9 (CCR9) (human) (UniProt P51686); test: cell-based or functional assay; remark: listed apart in the source
[12] = molecular target: chemokine (C-C motif) receptor 3 (CCR3) (human) (UniProt P51677); test: cell-based or functional assay

Chain of chemokine (C-C motif) receptor 3 (CCR3) (human) (P51677 whole entry): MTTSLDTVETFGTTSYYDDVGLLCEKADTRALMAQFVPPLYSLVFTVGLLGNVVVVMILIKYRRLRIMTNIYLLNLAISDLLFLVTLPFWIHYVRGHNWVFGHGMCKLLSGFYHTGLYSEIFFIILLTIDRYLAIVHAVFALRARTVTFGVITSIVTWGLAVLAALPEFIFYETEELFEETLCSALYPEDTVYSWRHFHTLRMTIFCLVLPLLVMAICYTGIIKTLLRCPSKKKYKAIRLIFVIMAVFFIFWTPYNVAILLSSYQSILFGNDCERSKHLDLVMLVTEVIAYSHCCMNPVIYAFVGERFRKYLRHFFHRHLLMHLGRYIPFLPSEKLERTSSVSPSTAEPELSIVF
Chain of chemokine (C-X-C motif) receptor 3 (CXCR3) (human) (P49682 whole entry): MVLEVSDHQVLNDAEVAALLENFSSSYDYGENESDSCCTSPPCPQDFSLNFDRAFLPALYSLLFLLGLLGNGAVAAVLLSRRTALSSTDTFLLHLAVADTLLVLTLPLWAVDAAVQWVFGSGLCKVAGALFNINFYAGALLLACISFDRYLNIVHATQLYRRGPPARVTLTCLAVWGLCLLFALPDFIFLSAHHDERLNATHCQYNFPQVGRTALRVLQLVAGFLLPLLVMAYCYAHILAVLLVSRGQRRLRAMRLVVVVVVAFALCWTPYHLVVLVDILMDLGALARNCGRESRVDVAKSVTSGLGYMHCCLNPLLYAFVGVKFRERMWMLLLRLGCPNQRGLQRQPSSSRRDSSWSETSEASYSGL
Chain of recombinant native IL-8 (P10145 28-99 limits assumed): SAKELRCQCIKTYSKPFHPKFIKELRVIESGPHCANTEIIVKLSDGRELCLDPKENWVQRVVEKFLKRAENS
Chain of chemokine (C-C motif) receptor 9 (CCR9) (human) (P51686 whole entry): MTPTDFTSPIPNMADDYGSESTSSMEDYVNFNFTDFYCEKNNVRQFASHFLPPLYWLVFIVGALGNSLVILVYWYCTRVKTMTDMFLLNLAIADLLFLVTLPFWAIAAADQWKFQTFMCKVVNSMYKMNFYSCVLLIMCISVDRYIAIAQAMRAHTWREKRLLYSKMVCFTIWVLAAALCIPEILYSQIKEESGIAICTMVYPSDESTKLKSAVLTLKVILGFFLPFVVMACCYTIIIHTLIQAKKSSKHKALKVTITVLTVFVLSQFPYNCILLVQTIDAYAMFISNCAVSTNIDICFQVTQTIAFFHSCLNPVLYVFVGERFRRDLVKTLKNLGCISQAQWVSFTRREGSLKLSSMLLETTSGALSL
Chain of UniProt P10145 (P10145 other isoform, or with tags, fused parts or gaps limits assumed): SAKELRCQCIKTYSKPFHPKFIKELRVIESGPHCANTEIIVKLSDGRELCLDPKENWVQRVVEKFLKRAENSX
Chain of recombinant native MIP-3a (P78556 27-96 limits assumed): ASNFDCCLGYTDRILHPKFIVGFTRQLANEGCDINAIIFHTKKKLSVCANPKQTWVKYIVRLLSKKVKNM
Chain of recombinant native TARC (Q92583 24-94 limits assumed): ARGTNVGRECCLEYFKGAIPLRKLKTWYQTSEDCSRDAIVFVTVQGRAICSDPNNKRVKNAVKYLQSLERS
Chain of UniProt Q92583 (Q92583 other isoform, or with tags, fused parts or gaps limits assumed): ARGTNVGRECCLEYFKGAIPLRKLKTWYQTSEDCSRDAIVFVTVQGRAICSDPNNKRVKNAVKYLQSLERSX
Chain of chemokine (C-X-C motif) receptor 4 (CXCR4) (human) (P61073 whole entry): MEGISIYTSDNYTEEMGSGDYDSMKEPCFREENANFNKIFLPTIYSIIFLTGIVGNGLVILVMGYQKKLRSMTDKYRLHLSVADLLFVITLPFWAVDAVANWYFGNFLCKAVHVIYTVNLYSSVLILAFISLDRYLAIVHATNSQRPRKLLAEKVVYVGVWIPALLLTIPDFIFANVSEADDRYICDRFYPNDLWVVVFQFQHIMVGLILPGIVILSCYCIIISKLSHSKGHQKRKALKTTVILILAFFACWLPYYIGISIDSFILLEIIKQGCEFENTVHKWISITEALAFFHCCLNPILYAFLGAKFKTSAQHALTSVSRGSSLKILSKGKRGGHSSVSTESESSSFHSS
Chain of chemokine (C-C motif) receptor 7 (CCR7) (human) (P32248 25-378): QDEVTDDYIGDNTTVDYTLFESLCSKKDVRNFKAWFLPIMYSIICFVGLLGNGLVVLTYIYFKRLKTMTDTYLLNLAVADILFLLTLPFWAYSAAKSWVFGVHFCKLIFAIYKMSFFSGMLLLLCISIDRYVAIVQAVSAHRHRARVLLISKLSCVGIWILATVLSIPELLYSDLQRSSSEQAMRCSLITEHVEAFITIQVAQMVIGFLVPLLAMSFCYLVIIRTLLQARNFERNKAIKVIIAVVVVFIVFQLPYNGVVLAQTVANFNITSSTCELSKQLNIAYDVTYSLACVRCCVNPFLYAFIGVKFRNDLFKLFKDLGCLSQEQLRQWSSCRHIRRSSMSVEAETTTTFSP

Substance: biotinSDF-1a (CXCL12): SDF-1a derivatised at Lys(64) with Biotin (from UniProt P48061 22-67) (ligand)
EC50 (agonist activity, Aequorin assay) [5]: 17.3 nM

Substance: biotinTARC (CCL17): TARC derivatised at Lys(72) with PEG-Biotin (from UniProt Q92583 24-94) (ligand)
EC50 (agonist activity, Aequorin assay) [6]: 3.1 nM

Substance: recombinant native IL-8 (from UniProt P10145 28-99) (ligand)
EC50 (agonist activity, Aequorin assay) [7]: 4.1 nM | EC50 (agonist activity, Aequorin assay) [1]: 4.2 nM

Substance: recombinant native MIP-3a (from UniProt P78556 27-96) (ligand)
EC50 (agonist activity, Aequorin assay) [8]: 1 nM

Substance: recombinant native MIP-3b (from UniProt Q99731 22-98) (ligand)
EC50 (agonist activity, Aequorin assay) [9]: 1.6 nM

Substance: recombinant native TARC (from UniProt Q92583 24-94) (ligand)
EC50 (agonist activity, Aequorin assay) [6]: 2.6 nM

Substance: recombinant native TECK (from UniProt O15444 24-150) (ligand)
EC50 (agonist activity, Aequorin assay) [10]: 67.9 nM | EC50 (agonist activity, Aequorin assay) [11]: 67.9 nM

Substance: recombinant native eotaxin (from UniProt P51671 24-97) (ligand)
EC50 (agonist, Aequorin assay) [12]: 10.7 nM

Other lines, results leading:

EC50 (agonist activity, Aequorin assay) [1]: 6.1 nM
Substance: biotinIL-8 (6-78): IL-8 (6-78) derivatised at Lys(78) with PEG-Biotin (from UniProt P10145 28-99) (ligand)

EC50 (agonist activity, Aequorin assay) [2]: 8.7 nM
Substance: biotinIP-10 (CXCL10): IP-10 derivatised with Biotin at an additional C-terminal Lysine after a PEG spacer (from UniProt P02778 22-98) (ligand)

percent reduction of chemokine receptor-expressing cells (CCR1, 3 or 5, not told apart) [3]: 20% | percent reduction of chemokine receptor-expressing cells (CCR1, 3 or 5, not told apart) [4]: 20%
Substance: biotinRANTES (CCL5): RANTES derivatised at Lys(67) with Biotin (from UniProt P13501 24-91) (ligand)

EC50 (agonist activity, Aequorin assay) [2]: 4.4 nM
Substance: recombinant native IP-10 (from UniProt P02778 22-98) (ligand)
